Values joined by “and” are separate entries in the source; they are usually repeats but may differ in a detail not shown here. Identical values can stand only once.

Kd data for one molecule are collected here from US20200030425 (published 2020).

In this experiment the target is T1, human ICOS-Fc (human).
T1 chain: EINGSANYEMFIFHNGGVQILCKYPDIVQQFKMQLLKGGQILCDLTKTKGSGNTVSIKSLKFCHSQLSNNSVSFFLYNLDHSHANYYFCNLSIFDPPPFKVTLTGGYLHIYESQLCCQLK
Description: SPR 37C.

B1: ICOS.33 IgG1f S267E Fab (antibody, V domains shown)
VH: EVQLVESGGGLVKPGGSLRLSCAASGFTFSDYFMHWVRQAPGKGLEWVGVIDTKSFNYATYYSDLVKGRFTISRDDSKNTLYLQMNSLKTEDTAVYYCTATIAVPYYFDYWGQGTLVTVSS
VL: DIQMTQSPSSLSASVGDRVTITCQASQDISNYLSWYQQKPGKAPKLLIYYTNLLAEGVPSRFSGSGSGTDFTFTISSLQPEDIATYYCQQYYNYRTFGPGTKVDIK
As for B1, the Kd was 52 nM and 65 nM.

What is called Kd is the equilibrium constant for the complex coming apart. A high value points to lower affinity.
